In paper PMC2990405:

Target: Canonical-type transient receptor potential cation channel type 3 (TRPC3) (rabbit (endogenous in skeletal muscle))
Assay: co-IP

ratio of GST-band/TRPC3-band intensities normalised to F1-1 (set as 1): 0.25
Substance: GST-JP2 fragment F1-3 (a.a. 143-215) (from UniProt Q9ET78 143-215) (domain or fragment)
